Reference: the DeepSol protein solubility set

Test: soluble on expression in E. coli; label from the status in PepcDB or PDB records

Row | Sequence | soluble on expression in E. coli
1 | MSLKKIMEYLQHYINQYPHRLALVFEDRHLTYGELSKEIYQASMRYKEVKLNEKVGLMDDHPVNNIINYFAVHQRGGIPCIFNHQWSNERIHQLVKSYDIQWLIKDNHLTLNHDDSIYNDEVIPRNVIHIGFTSGTTGLPKAFYRNEHSWIVSFKENEKLLQHCEETIVAPGPLSHSLSLYACIYALSTGKTFIGQKNFNPLSLMRLINQLNKATAIFVVPTMVQQLISTQRHCSSIKSILSSGAKLTLQQFQQISTLYPQANLIEFFGTSEASFISYNFNQSSPAHSVGKLFPHVETRLLNQDDDAVGLLAVRSEMVFSGYVGQSNQEGSWIKTGDFAYIKNQHLFLVGRESDRIIVGGINVYPTAIESLIMDIEGIDEALVIGIPHAKFGEIAILLYSGKVQLNYRQIKSFLMKQLSRQEVPSKLKKIDHMIYTESGKIARKEMKNKFINGEGHHHHHH | not soluble
2 | MSLKKKIAVVTGATGGMGIEIVKDLSRDHIVYALGRNPEHLAALAEIEGVEPIESDIVKEVLEEGGVDKLKNLDHVDTLVHAAAVARDTTIEAGSVAEWHAHLDLNVIVPAELSRQLLPALRAASGCVIYINSGAGNGPHPGNTIYAASKHALRGLADAFRKEEANNGIRVSTVSPGPTNTPMLQGLMDSQGTNFRPEIYIEPKEIANAIRFVIDAGETTQITNVDVRPRIELADRKEGHHHHHH | soluble
3 | MSLKKNFALEKKKELQEMTNSAVRRVLDFKKDPNKVIELLNFMARSPQYSFKNQMMVSSQYENSNFTMGSRQFKETMGLKVNENATPIKIVAPVMNTFFKRNDKLVQLRFANKEEKEKIKNKEIKTIQNVWYYKLVDVYDITQTNAKPEDFPEYYPDRRYNFYVKNTEVIDDIISANKKLLKDNNIHLIENHTYNQLGTSVGFAGKNLTGDKIVGYRDGLNKTEILHTLLHETTHAFYHQKENPEKTTELKEFEAEMTAYIVAKRFGVDTSEHTIKYVSDWTESMSKIEDIEQSIKTVSMYSSRIINDIEKQIDPVKIKEGHHHHHH | not soluble
4 | MSLKKSLTELISDLKGNENVVNWHEIEPREAKTRPMPESIDERIKAALSKRGIDELYTHQYSAFQYVQKGESIVTVTPTASGKTLCYNLPVLQSIAQDETNRALYLFPTKALAQDQKSELNEIIDEMGIDIKSFTYDGDTSPAIRQKVRKAGHIVITNPDMLHSAILPHHTKWVSLFENLKYIVIDELHTYRGVFGSHVANVIRRLKRICRFYGSDPVFICTSATIANPKELGEQLTGKPMRLVDDNGAPSGRKHFVFYNPPIVNKPLNIRRSATAEVNELAKEFLKNKVQTIVFARSRVRVEIILSHIQELVKKEIGTKSIRGYRGGYLPKERREIERGLREGDILGVVSTNALELGVDIGQLQVCVMTGYPGSVASAWQQAGRAGRRHGESLIIMVANSTPIDQYIVRHPEYFFNRSPESARINPENLIILVDHLKCAAYELPFRADEEFGAMEVSDILEYLQEEAVLHRNGERYHWASESFPASNISLRSASQENVVIVDQSDIANVRIIGEMDRFSAMTLLHDEAIYLHEGVQYQVEKLDWDHKKAYVRKVDVEYYTDANLAVQLKVLEIDKTKEKSRTSLHYGDVTVNALPTIFKKIKMTTFENIGSGPIHLPEEELHTSAAWLEIKTADEDIGEKTLEQLLLGISNVLQHIVPVYIMCDRNDVHVVSQIKAAHTGLPTIFLYDHYPGGIGLAEEVFKRFSDINEAAKQLITHCPCHDGCPSCIGTEIEGIKAKERILQLLDQMSEGHHHHHH | soluble
5 | MSLKLEAYRTLHCDAGWRRFSFLKLIAEDGTTGISEYNECYGSPGLTGVIEGVLEWIIGKNPFSHEKLSAELYARTRQAHGGIAQQAIAAVENALVDLKARSLGVPVYELLGGAVREELPLYWSHCGSYRLPRTAEMLGVPPITSLDDLVSLGKEVREKGFSALKTNIFLFEEQPHMHQPGFARSEGWPALNPERRIINSLKEQLAAFREGAGPELEILLDLNFNYRTEGFLTVCRALDDLGLGWFEMDLYDPAALARIRHALKTPVASCESLFGLRGFRPFFENQSMDVAIVDVPWNGIWQAMKIAGLAESFEVNVAPHNFYGHLSTLMSAHFCAAIPNFRIMEIDIDDVPWKDELVTKSPLIRDGILKIPEGIGWGTELNEEAIAAHPVKNTGDDRKYDRGMGEGHHHHHH | soluble
6 | MSLKLLAFDTSSTALSVAILEDDRLLADASLTIKKNHSISLMPTIDFLMKSVNLSPQDLDRIVVAEGPGSYTGLRVAVATAKTLAYTLTIDLVGVSSLAALALNSHHEGFIVPIMDARRNHVYVGFYENGRAAKADQYASLNAVLEQLKGRKQVTFVGEVTAFRQEINQTFPEAKVLEVLPSAFKIGQVGQKLTPVDVHAFVPKYLKKVEAEENWLKTHEDSGLSYVKRVEGHHHHHH | not soluble
7 | MSLKLLPAKQEAIEFVHFANVINDYLYKYPDKRNSGGTLTSEQIGITPVYDIHHIIYGKRVYIWSADTEGLMSALQQQTKHSAMLGRVKNKKIVDNQGNDMGVPVPSSIPEEAIVLINEGHHHHHH | soluble
8 | MSLKNLITKLENEERLNQEEANALWDLDLFTLGKYAHKKRTKLHGKKVYFNINRHINPTNICADTCKFCAFSAHRKNPNPYLMTHEEIMKIVDETVKRETKEVHIVSAHNKDTTWQWYLEIFKMIKEKYPNLHVKAMTAAEIDFLHRRFKMSYEEVIEKMLEYGVDSMPGGGAEIFDEEVRKKICHGKVSSENWLKIHKLWHEKSKQSNATMLFGHIEERHHRIDHMLRLRDLQDQTGGFNAFIPLVWQRDKSFIQTDKIMDSEEILKTIAISRLVLDNIKNIKAYWATMTLNLAMVAQEFGANDLDGTIEKESIQSAGGAKSAKGTSLKTFIDMIKTSNLIPVERDSLYNELKTYEGHHHHHH | not soluble
9 | MSLKPKRILLVNEQRSFQVMMKAMLINIGISRITYANSAEEARRRCQKETFDIYLLDYELGVGENGRQLLESLRDQKLIPPQSVVIMVSGDSSRAMVLSALEAEPDEYLMKPFSQEQFSFRLKRALARRQALESVFSALAKEDLPTLLAACAERADAVPRFANFCRCLQADTQLKLGQAKEARSLMRQLLAGQENSWARLTLGKACHTLGLNEEAVSHLQATLKNTPLMVEAHLWLAESQLALGNDEQAQQELKRAVDISPQSVQLSRRLAEVCLLRHDYAQAKDVLLSLIDLSRNSIHRTPHYLGAYIQSLTLYALNSNDIYHIANLQKQVNSALSRIRDSLMMSEFNYPVFEQICQARVQIALGELLKGKKMLYRANQNWLDQPATMPPSLLGETILALYQLGEFEYAESLQALLAEDEDRLLTTCIQATRDDKTVLERRQRYQQLNELGIKAYQSGELEQALGHFREALRRAPANTGAALNKIQVLLQLMQKNRKSPEFGAECKETLEVLDGIPLNPAQQDRFRKLRQEFTQLSEGHHHHHH | soluble
10 | MSLKPLHYTASALALGLALMGNAQAVTTIPFWHSMEGELGKEVDSLAQRFNAENPDYKIVPTYKGNYEQNLSAGIAAFRTGNAPAILQVYEVGTATMMASKAIKPVYDVFKEAGIQFDESQFVPTVSGYYSDSKTGHLLSQPFNSSTPVLYYNKDAFKKAGLDPEQPPKTWQDLADYAAKLKASGMKCGYASGWQGWIQLENFSAWNGLPFASKNNGFDGTDAVLEFNKPEQVKHIAMLEEMNKKGDFSYVGRKDESTEKFYNGDCAMTTASSGSLANIREYAKFNYGVGMMPYDADAKDAPQNAIIGGASLWVMQGKDKETYTGVAKFLDFLAKPENAAEWHQKTGYLPITKAAYDLTREQGFYEKNPGADTATRQMLNKPPLPFTKGLRLGNMPQIRVIVDEELESVWTGKKTPQQALDTAVERGNQLLRRFEKSTKSEGGSHHHHHH | soluble
11 | MSLKRKIETFLAKWKKSEDRKPLVIKGIRQCGKTYIVQKFAKENYESVVYMNFILEPDKKSAFTGNIDVDTIILNLSALIQGSRFINGKTCIILDEIQECKEARTALKSFHIDGRFDVIATGSLLGVKGYDKSKKKKEEEEGQDSVPVGYETVIDMYPLDFEEFLWANGISDMVIDSVKSCFENESTVPDGIHKAMMELLYRYVIVGGLPEVVNCFLETKNIELIYKVQRNLIAEYEEDMVKYADDPDKPRIRECFESIPKQLAKENKKFQYSVVKKGGRASQYIGSIQWLEDAGIVRRCYNTQITELPLEGNSIKGSFKVYTTDIGILMAMLDYGTQADILKGNLLGYKGAIFENLMADFLCKSGQKLYYFHKDSGLELDFLVRFKGECVILEVKAKTGKAKSMTTVLKNKDVYYVNNAIKLGQYNVGCEGDILTIPLYMGFLVEDKLADVIIPDVDVSLLTTIEGHHHHHH | soluble
12 | MSLKRKVLFTAVMVLAGLQLLSGCGKTEASANDTVVLRYAYASNSQPVIDSMKKFGELVEEKTDGKVQIEYFPDGQLGGETELIELTQTGAIDFAKVSGSALESFSKDYSVFAIPYIFDNEKHFFKVMDNQALMQPVYDSTKKLGFVGLTYYDSGQRSFYMSKGPVTSPDDLKGKKIRVMQSETAIKMVELLGGSPVPMGSSEVYTSLQSNLINGAENNEFVLYTAGHGGVAKYYSYDEHTRVPDIVIMNEGTKERLTAKQEQAIEEAAKESTAFEKTVFKEAVEEEKKKAQAEYGVVFNQVDSEPFQKLVQPLHESFKNSSEHGELYQAIRQLADEGGSHHHHHH | soluble
13 | MSLKRLNLYIFGENNILDILIKNGSVFSGNNNEPESNNIGIKKSKIDFIGKESPESKKVIDAKDYIVTPGFIDIHTHSDISFLVDPEADSKLTQGVTFEFLGNCGMSFCAPLNSASKQTLSDRLSKYNSDVKIDWNDFTDWLNKIEKNIPSINVAAQLGHGVLRSYVMGMKAVSATPEDIEAMKNIVRSSIDQGVLGFSTGLWYAPGSYSHTEEIVEITKVVAEHDLLYSSHIRSESDDASGLFPAHAEAIEIGRRTGAKIQISHVKSVGPQFWGRGKELLEGMYKAREEGIDVAGDQYPYEWSSTPTSGCMFPRWSLEGGREKTLERLKDKNIREAIKSETINYINRFHGSAGCVLAEFSNDKKLEGLNLSEISEEFSCSPEEAAMRLYEISEGSFVLHSMEEQDVDTIGMSDIIAVASDGNSLRNTGPLSNGKPHPRSYGTNTRFIEDMVVNKKKVSISNAIYRMTSLPASRIGLKNRGEIKKGYFADINIFKPEELREKATYVDPHQYSTGMKWVLVNGKIALKDGKKIEGRFGKVVRSKEGEGHHHHHH | soluble
14 | MSLKRSIHVQAFVYNEKKDEILIVRNRNLAWTFPGGHVETDQTMEEALASKVKEQTNIDIEIESILHCKERRATWEHVCTFVFRAKPVGEMATFSNDDNVFRVKWIPIPLADDLLPIDQLSLNELVRSEGVLYENEGHHHHHH | soluble
15 | MSLKSHVRSFKTYIRDEIIKKGGWVNAHAHADRAFTMTPEKIGIYHSSNLQQKWDLVDEVKRTSSVDDYYARFCQSIELMISQGVTAFGTFVDIDPICEDRAIIAAHKAREVYKHDIILKFANQTLKGVIEPTARKWFDIGAEMVDMIGGLPYRDELDYGRGLEAMDILLDKAKSLGIMCHVHVDQFNNPSEKETEQLCDKTIEHGMEGRVVGIHGISIGSHSKEYRYKLYEKMRKAKMMMIACPMAWIDSNRKEDLMPFHNALTPADEMIPEGITVALGTDNICDYMVPLCEGDLWQELSLLAAGCRFPHLDEMVNIASINGRKVLGLELIEGHHHHHH | soluble
16 | MSLKTKTFKMQLQFLSEQNLEINNNNQLLNQEKITYLQKIEQLKCKLEYQERMIKDSEKIREESFASAKAALFDLGKDLSKQLIEIHKMENNTTRELAEKNIETASQKFNTELERLITMVGALNKDIEQSKGTVDLIKQSLLSPIGAGLLSEITLENILKSSGLRPNLDFIMQYSLTTSDSVKLRPDAIIFLPSGNLMVIDSKASKFLVDSQDNSVHLSKTMNYHLKTLTNKDYAENILTNLNKKTQNFNNVITLMFLPTEQAVEKVIAANPEFLQKAWGCNIFPVGPAGLMNMLSFAKFQITDNRRSENYKVIIEEVRKLLSSIGTIADYSKKIGYNLQNMVTNYDKFAASFNRNVMSRVKSIQKLGIDSGNKIIPATLERYQIVSAKSEIIEVDVENQHKEGHHHHHH | not soluble
